The assay has as its target L chains of normal human 7S γ-globulin (human). Nature of the assay: AUC.

With “L chains of normal human 7S γ-globulin (natural protein)”, the per cent of the material at the molecular weight of the dimer is 84 per cent.
